One may read the IC50 as the concentration that inhibits the measured activity by half. A low value points to inhibition by little substance.

This is an account of results in patent US20020068814A1.

Read-outs that look alike come from different tables or passages of the source. No end group written: not given here.

In test [1] the target is CGRP receptor of pig coronary artery (pig). Description: displacement of 125I-[His10]-h-αCGRP from pig coronary artery membranes. On the technique in general: In a radioligand displacement assay an active substance lowers the binding of a labelled ligand.
The target is the same in test [2]. Description: cell-based or functional assay.
For test [3] the target is unchanged. The test can be described thus: displacement of 125I-[His10]-h-αCGRP from pig coronary artery membranes. This is another data set of the same source.

In the case of dibenzyl-h-α-CGRP(8-37) (peptide), in test [1], the IC50 was determined as 220 pM.

As to N-α-benzyl-h-α-CGRP (8-37) (peptide), in test [1], the IC50 is 1580 pM.

Turning to N-α-benzoyl-h-α-CGRP (8-37) (peptide), in test [1], the IC50 worked out at 270 pM.

Turning to h-α-CGRP (8-37) (peptide), the KB from inhibition of h-α-CGRP-induced relaxation of pig coronary artery rings (Schild analysis) in test [2] amounted to 970 nM.

B1: N-α-benzoyl-h-β-CGRP (8-37) (peptide, UniProt P10092 89-118, looked up)
chain: VTHRLAGLLSRSGGMVKSNFVPTNVGSKAF
modifications: Calcitonin gene-related peptide 2 N-alpha-benzoyl
B1 displayed an IC50 in test [3] of 630 pM.

B2: N-α-benzyl-h-β-CGRP (8-37) (peptide, UniProt P10092 89-118, looked up)
chain: VTHRLAGLLSRSGGMVKSNFVPTNVGSKAF
modifications: Calcitonin gene-related peptide 2 N-alpha-benzyl
B2: the IC50 in test [3] was found to be 3620 pM.

B3: dibenzyl-h-β-CGRP(8-37) (peptide, UniProt P10092 89-118, looked up)
chain: VTHRLAGLLSRSGGMVKSNFVPTNVGSKAF
modifications: Calcitonin gene-related peptide 2 N,N-dibenzyl
As to B3, in test [3], the IC50 was determined as 730 pM.

B4: h-β-CGRP (8-37) (peptide)
chain: VTHRLAGLLSRSGGMVKSNFVPTNVGSKAF
modifications: ends and bridges not checked
In test [3], B4 registered an IC50 of 20600 pM.
